Data on two molecules can be found in publication PMC10801921.

One data set has as its target T1, ARR1 RD-DBD R294A (Arabidopsis thaliana, UniProt Q940D0 1-301, R294A).
T1 sequence: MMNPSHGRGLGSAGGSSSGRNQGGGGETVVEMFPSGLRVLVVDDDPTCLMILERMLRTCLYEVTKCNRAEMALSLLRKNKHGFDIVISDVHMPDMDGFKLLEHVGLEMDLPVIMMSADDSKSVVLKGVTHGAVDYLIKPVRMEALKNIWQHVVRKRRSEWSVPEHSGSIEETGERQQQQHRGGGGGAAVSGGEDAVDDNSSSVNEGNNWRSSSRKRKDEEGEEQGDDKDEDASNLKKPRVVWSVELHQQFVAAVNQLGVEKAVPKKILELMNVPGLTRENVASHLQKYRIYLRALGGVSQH
Kind of data set: BLI.

Another data set has as its target T2, ARR1 RD-DBD D89E (Arabidopsis thaliana, UniProt Q940D0 1-301, D89E).
T2 sequence: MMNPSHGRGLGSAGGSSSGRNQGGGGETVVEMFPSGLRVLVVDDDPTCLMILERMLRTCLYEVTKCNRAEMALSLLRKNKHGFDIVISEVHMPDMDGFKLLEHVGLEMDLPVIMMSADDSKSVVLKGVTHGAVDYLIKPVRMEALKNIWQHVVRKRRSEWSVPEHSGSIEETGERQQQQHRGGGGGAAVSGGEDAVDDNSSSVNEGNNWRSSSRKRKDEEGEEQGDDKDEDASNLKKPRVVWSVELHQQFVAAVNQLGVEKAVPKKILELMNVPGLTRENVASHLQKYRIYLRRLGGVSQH
Briefly: BLI.

For another data set, the target named is T3, ARR1 DBD (crystal) (Arabidopsis thaliana, UniProt Q940D0 221-301).
T3 sequence: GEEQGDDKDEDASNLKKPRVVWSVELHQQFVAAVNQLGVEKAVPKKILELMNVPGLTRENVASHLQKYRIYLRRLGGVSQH
Briefly: X-ray crystallography.

B1: DNA-TCS 40 bp (ARR6-40) (dsDNA)
DNA 1: GGATTAGATTAGATTAATCTGGATTAGATTAATCTAGATT
DNA 2: AATCTAGATTAATCTAATCCAGATTAATCTAATCTAATCC
In the case of B1, the binding result with ARR1 RD-DBD R294A and with ARR1 RD-DBD D89E was “binds” each time.

B2: DNA-TCS 25 bp (crystal) (dsDNA)
DNA 1: AATCCAGATTAATCTAATCTAATCC
DNA 2: GGATTAGATTAGATTAATCTGGATT
As for B2, in the data set with ARR1 DBD (crystal), the binding result is given as “binds”.
